Assay results: US20220409711A1 (published 2022)

Target: T1, Hormad1 peptide on HLA-A*02:01 (human)
T1 peptide: YLDDLCVKI
Experiment: multimer staining

binding result: recognises
B1: Hormad1 CTL A12 TCR (TRAV4*01 F, TRBV13*01 F) (TCR, V domains shown)
Valpha: LAKTTQPISMDSYEGQEVNITCSHNNIATNDYITWYQQFPSQGPRFIIQGYKTKVTNEVASLFIPADRKSSTLSLPRVSLSDTAVYYCLVGARGTALIFGKGTTLSVSS
Vbeta: AAGVIQSPRHLIKEKRETATLKCYPIPRHDTVYWYQQGPGQDPQFLISFYEKMQSDKGSIPDRFSAQQFSDYHSELNMSSLELGDSALYFCASSPTGQGSYEQYFGPGTRLTVT
